Measurements: PMC7181634, “Enhanced succinic acid production by Mannheimia employing optimal malate dehydrogenase” (Nature Communications, 2020)
Residue numbers refer to the chain shown, from its start. Numbers in names are those of the source.

B1: CgMDH (Corynebacterium glutamicum ATCC 13032) (protein)
chain: MNSPQNVSTKKVTVTGAAGQISYSLLWRIANGEVFGTDTPVELKLLEIPQALGGAEGVAMELLDSAFPLLRNITITADANEAFDGANAAFLVGAKPRGKGEERADLLANNGKIFGPQGKAINDNAADDIRVLVVGNPANTNALIASAAAPDVPASRFNAMMRLDHNRAISQLATKLGRGSAEFNNIVVWGNHSATQFPDITYATVGGEKVTDLVDHDWYVEEFIPRVANRGAEIIEVRGKSSAASAASSAIDHMRDWVQGTEAWSSAAIPSTGAYGIPEGIFVGLPTVSRNGEWEIVEGLEISDFQRARIDANAQELQAEREAVRDLL
notes: full length, C-terminal 6xHis (pET30a), expressed in E. coli BL21(DE3), Ni-NTA, ion exchange and size exclusion
B2: MsMDH ([Mannheimia] succiniciproducens MBEL55E) (protein)
chain: MKVAVLGAAGGIGQALALLLKLQLPAGSSLSLYDVAPVTPGVAKDLSHIPTDVVVEGFAGTDPSEALKGADIVLISAGVARKPGMTRADLFGVNAGIIRSLTEKVAEQCPKACVGIITNPVNAMVAIAAEVLKKAGVYDKRKLFGITTLDILRAETFIAELKGLDPTRVTIPVIGGHSGVTILPLLSQVQNVEWSSEEEIIALTHRIQNAGTEVVEAKAGGGSATLSMAQAAARFALALVKASQGAKVVECAYVEGDGKYARFFAQPVRLGTEGVEEYLTLGKLSAFEEKALNAMLETLQGDIKSGEDFING
notes: as for B1
B3: MsMDH ([Mannheimia] succiniciproducens MBEL55E; G11Q) (protein)
chain: B2 chain with G11Q
notes: as for B1

Columns and labels:
purified protein [1] = substrate: O=C(O)CC(=O)C(=O)O; assay: purified protein; type: biochemical, Corynebacterium glutamicum; settings: pH 7.0, 0.1 M Tris-HCl, NADH co-substrate, room temperature
purified protein [2] = substrate: O=C(O)CC(=O)C(=O)O; assay: purified protein; type: biochemical, [Mannheimia] succiniciproducens; settings: pH 7.0, 0.1 M Tris-HCl, NADH co-substrate, room temperature

| Protein | Km (purified protein [1]) | kcat (purified protein [1]) | kcat/Km (purified protein [1]) | Km (purified protein [2]) | kcat (purified protein [2]) | kcat/Km (purified protein [2]) |
| --- | --- | --- | --- | --- | --- | --- |
| B1 | 46.1 ± 7.3 µM | 920 ± 77 s⁻¹ | 1.99e+07 ± 300000 M⁻¹ s⁻¹ |  |  |  |
| B2 |  |  |  | 18.2 ± 10.5 µM | 376 ± 119 s⁻¹ | 2.07e+07 ± 4.5e+06 M⁻¹ s⁻¹ |
| B3 |  |  |  | 103.5 ± 25.9 µM | 927 ± 152 s⁻¹ | 9e+06 ± 400000 M⁻¹ s⁻¹ |
